Source: patent publication US20140348819A1, “Methods of Treating Cancer” (Dana-Farber Cancer Institute, Inc., priority 2011, published 2014)

System: six V600E BRAF melanoma cell lines
Test: Screening of recombinant RTK ligands for ability to confer resistance to BRAFi (PLX4720) or MEKi (PD184352) (Table 4)
Assay type: cell-based, human
Set-up: ability of recombinant RTK ligand to confer resistance / ability of recombinant RTK ligand to confer resistance (screening value): scale not given here
How it was run: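 Six V600E BRAF melanoma lines treated with PLX4720 or PD184352 after addition of 22 recombinant RTK ligands, scored for drug resistance. Activation of selected RTKs confirmed by western blotting and high-throughput tyrosine kinase phosphorylation profiling.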

B1: Ephrin-A4 (protein, UniProt P52798 26-170, looked up)
Ephrin-A4: LRHVVYWNSSNPRLLRGDAVVELGLNDYLDIVCPHYEGPGPPEGPETFALYMVDWPGYESCQAEGPRAYKRWVCSLPFGHVQFSEKIQRFTPFSLGFEFLPGETYYYISVPTPESSGQCLRLQVSVCCKERKSESAHPVGSPGES
Question: How did the “ability of recombinant RTK ligand to confer resistance” value (shortened to “ability of recombinant RTK ligand”) (A2058, PD184352 - 1 uM, ligand 1.6 ng/ml) turn out when B1 was run?
Answer: Its value is 1.00.

Question: And the “ability of recombinant RTK ligand” value (A2058, PD184352 - 1 uM, ligand 6.25 ng/ml)?
Answer: Its value is 1.02.

Question: What about the “ability of recombinant RTK ligand” value (A2058, PD184352 - 1 uM, ligand 25 ng/ml) of the same molecule?
Answer: Its value is 0.99.

Question: And the “ability of recombinant RTK ligand” value (A2058, PD184352 - 1 uM, ligand 100 ng/ml)?
Answer: The value was 1.04.

Question: What about the “ability of recombinant RTK ligand” value (A2058, PD184352 - 1 uM, ligand 400 ng/ml) of the same molecule?
Answer: The value was 1.07.

Question: What about the “ability of recombinant RTK ligand” value (A2058, PLX4720 - 2 uM, ligand 1.6 ng/ml) of the same molecule?
Answer: The value was 0.97.

Question: And the “ability of recombinant RTK ligand” value (A2058, PLX4720 - 2 uM, ligand 6.25 ng/ml)?
Answer: Its value is 0.99.

Question: And the “ability of recombinant RTK ligand” value (A2058, PLX4720 - 2 uM, ligand 25 ng/ml)?
Answer: Its value is 0.96.

Question: And the “ability of recombinant RTK ligand” value (A2058, PLX4720 - 2 uM, ligand 100 ng/ml)?
Answer: Its value is 0.99.

Question: And the “ability of recombinant RTK ligand” value (A2058, PLX4720 - 2 uM, ligand 400 ng/ml)?
Answer: The value was 0.98.

Question: What about the “ability of recombinant RTK ligand” value (C32, PD184352 - 1 uM, ligand 1.6 ng/ml) of the same molecule?
Answer: The value was 1.02.

Question: And the “ability of recombinant RTK ligand” value (C32, PD184352 - 1 uM, ligand 6.25 ng/ml)?
Answer: Its value is 1.02.

Question: What about the “ability of recombinant RTK ligand” value (C32, PD184352 - 1 uM, ligand 25 ng/ml) of the same molecule?
Answer: The value was 0.98.

Question: And the “ability of recombinant RTK ligand” value (C32, PD184352 - 1 uM, ligand 100 ng/ml)?
Answer: Its value is 1.04.

Question: And the “ability of recombinant RTK ligand” value (C32, PD184352 - 1 uM, ligand 400 ng/ml)?
Answer: The value was 0.90.

Question: What about the “ability of recombinant RTK ligand” value (C32, PLX4720 - 2 uM, ligand 1.6 ng/ml) of the same molecule?
Answer: The value was 1.04.

Question: What about the “ability of recombinant RTK ligand” value (C32, PLX4720 - 2 uM, ligand 6.25 ng/ml) of the same molecule?
Answer: Its value is 1.01.

Question: And the “ability of recombinant RTK ligand” value (C32, PLX4720 - 2 uM, ligand 25 ng/ml)?
Answer: Its value is 1.04.

Question: And the “ability of recombinant RTK ligand” value (C32, PLX4720 - 2 uM, ligand 100 ng/ml)?
Answer: The value was 1.10.

Question: And the “ability of recombinant RTK ligand” value (C32, PLX4720 - 2 uM, ligand 400 ng/ml)?
Answer: The value was 1.03.

Question: What about the “ability of recombinant RTK ligand” value (Colo 829, PD184352 - 1 uM, ligand 1.6 ng/ml) of the same molecule?
Answer: The value was 1.08.

Question: And the “ability of recombinant RTK ligand” value (Colo 829, PD184352 - 1 uM, ligand 6.25 ng/ml)?
Answer: Its value is 1.13.

Question: What about the “ability of recombinant RTK ligand” value (Colo 829, PD184352 - 1 uM, ligand 25 ng/ml) of the same molecule?
Answer: Its value is 1.01.

Question: And the “ability of recombinant RTK ligand” value (Colo 829, PD184352 - 1 uM, ligand 100 ng/ml)?
Answer: Its value is 0.98.

Question: And the “ability of recombinant RTK ligand” value (Colo 829, PD184352 - 1 uM, ligand 400 ng/ml)?
Answer: Its value is 0.96.

Question: What about the “ability of recombinant RTK ligand” value (Colo 829, PLX4720 - 2 uM, ligand 1.6 ng/ml) of the same molecule?
Answer: Its value is 1.06.

Question: What about the “ability of recombinant RTK ligand” value (Colo 829, PLX4720 - 2 uM, ligand 6.25 ng/ml) of the same molecule?
Answer: Its value is 1.19.

Question: And the “ability of recombinant RTK ligand” value (Colo 829, PLX4720 - 2 uM, ligand 25 ng/ml)?
Answer: The value was 1.00.

Question: What about the “ability of recombinant RTK ligand” value (Colo 829, PLX4720 - 2 uM, ligand 100 ng/ml) of the same molecule?
Answer: The value was 0.99.

Question: And the “ability of recombinant RTK ligand” value (Colo 829, PLX4720 - 2 uM, ligand 400 ng/ml)?
Answer: The value was 0.90.

Question: And the “ability of recombinant RTK ligand” value (G-361, PD184352 - 1 uM, ligand 1.6 ng/ml)?
Answer: The value was 1.11.

Question: And the “ability of recombinant RTK ligand” value (G-361, PD184352 - 1 uM, ligand 6.25 ng/ml)?
Answer: Its value is 1.09.

Question: What about the “ability of recombinant RTK ligand” value (G-361, PD184352 - 1 uM, ligand 25 ng/ml) of the same molecule?
Answer: Its value is 1.04.

Question: What about the “ability of recombinant RTK ligand” value (G-361, PD184352 - 1 uM, ligand 100 ng/ml) of the same molecule?
Answer: Its value is 0.98.

Question: What about the “ability of recombinant RTK ligand” value (G-361, PD184352 - 1 uM, ligand 400 ng/ml) of the same molecule?
Answer: Its value is 0.86.

Question: And the “ability of recombinant RTK ligand” value (G-361, PLX4720 - 2 uM, ligand 1.6 ng/ml)?
Answer: The value was 1.08.

Question: And the “ability of recombinant RTK ligand” value (G-361, PLX4720 - 2 uM, ligand 6.25 ng/ml)?
Answer: The value was 1.05.

Question: What about the “ability of recombinant RTK ligand” value (G-361, PLX4720 - 2 uM, ligand 25 ng/ml) of the same molecule?
Answer: Its value is 0.95.

Question: What about the “ability of recombinant RTK ligand” value (G-361, PLX4720 - 2 uM, ligand 100 ng/ml) of the same molecule?
Answer: Its value is 1.02.

Question: And the “ability of recombinant RTK ligand” value (G-361, PLX4720 - 2 uM, ligand 400 ng/ml)?
Answer: Its value is 0.88.

Question: What about the “ability of recombinant RTK ligand” value (SK-MEL-5, PD184352 - 1 uM, ligand 1.6 ng/ml) of the same molecule?
Answer: Its value is 0.96.

Question: What about the “ability of recombinant RTK ligand” value (SK-MEL-5, PD184352 - 1 uM, ligand 6.25 ng/ml) of the same molecule?
Answer: Its value is 0.93.

Question: What about the “ability of recombinant RTK ligand” value (SK-MEL-5, PD184352 - 1 uM, ligand 25 ng/ml) of the same molecule?
Answer: Its value is 0.93.

Question: And the “ability of recombinant RTK ligand” value (SK-MEL-5, PD184352 - 1 uM, ligand 100 ng/ml)?
Answer: The value was 0.98.

Question: And the “ability of recombinant RTK ligand” value (SK-MEL-5, PD184352 - 1 uM, ligand 400 ng/ml)?
Answer: The value was 0.99.

Question: What about the “ability of recombinant RTK ligand” value (SK-MEL-5, PLX4720 - 2 uM, ligand 1.6 ng/ml) of the same molecule?
Answer: The value was 0.91.

Question: What about the “ability of recombinant RTK ligand” value (SK-MEL-5, PLX4720 - 2 uM, ligand 6.25 ng/ml) of the same molecule?
Answer: The value was 1.07.

Question: What about the “ability of recombinant RTK ligand” value (SK-MEL-5, PLX4720 - 2 uM, ligand 25 ng/ml) of the same molecule?
Answer: Its value is 0.99.

Question: What about the “ability of recombinant RTK ligand” value (SK-MEL-5, PLX4720 - 2 uM, ligand 100 ng/ml) of the same molecule?
Answer: Its value is 0.99.

Question: What about the “ability of recombinant RTK ligand” value (SK-MEL-5, PLX4720 - 2 uM, ligand 400 ng/ml) of the same molecule?
Answer: Its value is 0.93.

Question: And the “ability of recombinant RTK ligand” value (SK-MEL-28, PD184352 - 1 uM, ligand 1.6 ng/ml)?
Answer: Its value is 0.98.

Question: And the “ability of recombinant RTK ligand” value (SK-MEL-28, PD184352 - 1 uM, ligand 6.25 ng/ml)?
Answer: Its value is 0.88.

Question: And the “ability of recombinant RTK ligand” value (SK-MEL-28, PD184352 - 1 uM, ligand 25 ng/ml)?
Answer: Its value is 0.99.

Question: What about the “ability of recombinant RTK ligand” value (SK-MEL-28, PD184352 - 1 uM, ligand 100 ng/ml) of the same molecule?
Answer: The value was 1.07.

Question: And the “ability of recombinant RTK ligand” value (SK-MEL-28, PD184352 - 1 uM, ligand 400 ng/ml)?
Answer: Its value is 0.90.

Question: And the “ability of recombinant RTK ligand” value (SK-MEL-28, PLX4720 - 2 uM, ligand 1.6 ng/ml)?
Answer: Its value is 1.10.

Question: What about the “ability of recombinant RTK ligand” value (SK-MEL-28, PLX4720 - 2 uM, ligand 6.25 ng/ml) of the same molecule?
Answer: The value was 0.84.

Question: What about the “ability of recombinant RTK ligand” value (SK-MEL-28, PLX4720 - 2 uM, ligand 25 ng/ml) of the same molecule?
Answer: Its value is 1.05.

Question: And the “ability of recombinant RTK ligand” value (SK-MEL-28, PLX4720 - 2 uM, ligand 100 ng/ml)?
Answer: The value was 1.10.

Question: What about the “ability of recombinant RTK ligand” value (SK-MEL-28, PLX4720 - 2 uM, ligand 400 ng/ml) of the same molecule?
Answer: The value was 1.00.
